The target in the assay is T1, GST-SVIP (Drosophila SVIP, CG32039) (Drosophila, UniProt Q8IQC6 1-82).
T1 chain: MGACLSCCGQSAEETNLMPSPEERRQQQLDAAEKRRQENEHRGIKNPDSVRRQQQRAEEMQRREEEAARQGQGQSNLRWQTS

B1: MBP-VCP^N-D1 (Drosophila VCP, N-terminal and first D1 ATPase domain) (domain or fragment)
chain: MADSKGEDLATAILKRKDRPNRLIVEEAQNDDNSVVSLSQAKMDELQLFRGDTVILKGKRRKETVCIVLSDDTCPDEKIRMNRVVRNNLCVHLSDVVSVQSCPDVKYGKRVRILPIDESTEGVTGNLFEIYLKPYFLEAYRPIHMGDNFIVRAAMRPIEFKVVLTDPEPYCIVAPETVIFCDGDPIKREEEEESLNAVGYDDIGGCRKQLAQIKEMVELPLRHPSLFKAIGVKPPRGILMYGPPGTGKTLIARAVANETGAFFFLINGPEIMSKLAGESESNLRKAFEEAEKNSPAIIFIDEIDAIAPKRDKTHGEVERRIVSQLLTLMDGMKKSSHLIVMAATNRPNSIDPALRRFGRFDREIDIGIPDATGRLEVLRIHTKNMKLHDDVDLEQIAAESHGHVGADLASLCSEAALQQIREKMDLIDLEDDKIDAEVLASLAVTMENFRYAMTKSSPSALRETVVEVPNTTWTDIGGLESVKKELQELVQYPVEHPDKFLKFGMQPSRGVLFYGPPGCGKTLLAKAIANECQANFISVKGPELLTMWFGESEANVRDIFDKARSAAPCVLFFDELDSIAKARGGNVGDAGGAADRVINQILTEMDGMGAKKNVFIIGATNRPDIIDPAILRPGRLDQLIYIPLPDDKSREAILKANLRKSPLAKEVDLTYIAKVTQGFSGADLTEICQRACKLAIRQAIEAEIRREKERAENQNSAMDMDEDDPVPEITSAHFEEAMKFARRSVSDNDIRKYEMFAQTLQQSRGFGQNFRFPGQTGNTSGSGNNLPVNSPGDNGDDDLYS
Regarding B1, binding was put at a Kd of 700 nM.

The record behind these values is article PMC7820495 (2021).
